From PMC4746701, “Crystal structure of SEL1L: Insight into the roles of SLR motifs in ERAD pathway” (Scientific Reports, 2016)
Substitutions are numbered along the chain they refer to. Names and notes keep the numbering of the source. Values belong to the binder of their own block, whether it stands above or below them.

Experiments:
[1] = target: T1, MBP-SEL1L SLR-C (SLR motifs 10 and 11, residues 639–719) (Mus musculus, UniProt Q9Z2G6 639-719); assay: pull-down; 400 μg GST-HRD1 luminal fragment on glutathione sepharose 4B beads, 100 μg MBP-SEL1L protein; 150 mM NaCl, 25 mM sodium phosphate pH 7.5, 5 mM DTT; 4 °C, 15 minutes; SDS-PAGE, Coomassie; settings: both partners purified
T1 construct: SEL1L, Mus musculus, residues 639-719 (SLR-C); source: purified; not shown: MBP, N-terminal, kept

[2] = target: the molecule itself; assay: cross-linking; glutaraldehyde (0.005%) or dimethyl suberimidate (0.3 mM), products analysed by SDS-PAGE
[3] = target: the molecule itself; assay: SEC; Superdex 200; 25 mM Tris, 150 mM NaCl, 5 mM DTT, pH 7.5

T1 sequence (Q9Z2G6 639-719): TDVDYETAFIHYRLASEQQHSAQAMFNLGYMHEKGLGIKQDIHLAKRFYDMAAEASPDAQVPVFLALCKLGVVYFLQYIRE

binding result [1]: binds
B1: GST-HRD1 N-terminal luminal loop (residues 21–42) (domain or fragment, mouse, UniProt Q9DBY1 21-42, looked up)
chain: HAYYLKHQFYPTVVYLTKSSPS
notes: HRD1 E3 ubiquitin ligase, mouse, N-terminal luminal loop, residues 21-42; also called N-terminal luminal loop of HRD1; HRD1 luminal fragment GST-fusion protein; source: GST-fusion protein immobilised on glutathione sepharose 4B beads

B2: SEL1L^cent (mouse SEL1L central domain, SLR motifs 5 to 9, residues 348–533) (domain or fragment, Mus musculus, UniProt Q9Z2G6 348-533, looked up)
chain: NSGMLEEDLIQYYQFLAEKGDVQAQVGLGQLHLHGGRGVEQNHQRAFDYFNLAANAGNSHAMAFLGKMYSEGSDIVPQSNETALHYFKKAADMGNPVGQSGLGMAYLYGRGVQVNYDLALKYFQKAAEQGWVDGQLQLGSMYYNGIGVKRDYKQALKYFNLASQGGHILAFYNLAQMHASGTGVMR
notes: Forms a homodimer (crystal, cross-linking, AUC, SEC); also called wild-type SEL1L^cent; source: purified
stoichiometry N [2]: 2

B3: SEL1L^cent G513A (domain or fragment, Mus musculus, UniProt Q9Z2G6 348-533, looked up)
chain: B2 chain with G166A
notes: source: purified
binding result [3]: binds

B4: SEL1L^cent Q460A (negative control point mutant) (domain or fragment, Mus musculus, UniProt Q9Z2G6 348-533, looked up)
chain: B2 chain with Q113A
notes: source: purified
binding result [3]: binds

B5: SEL1L^cent G512A (domain or fragment, Mus musculus, UniProt Q9Z2G6 348-533, looked up)
chain: B2 chain with G165A
notes: source: purified
binding result [3]: binds

B6: SEL1L^long (mouse SEL1L residues 337–554) (domain or fragment, Mus musculus, UniProt Q9Z2G6 337-554, looked up)
chain: RLPDEVENPGMNSGMLEEDLIQYYQFLAEKGDVQAQVGLGQLHLHGGRGVEQNHQRAFDYFNLAANAGNSHAMAFLGKMYSEGSDIVPQSNETALHYFKKAADMGNPVGQSGLGMAYLYGRGVQVNYDLALKYFQKAAEQGWVDGQLQLGSMYYNGIGVKRDYKQALKYFNLASQGGHILAFYNLAQMHASGTGVMRSCHTAVELFKNVCERGRWSER
notes: SEL1L, Mus musculus (790 amino acids), residues 337-554; also called the central region of SEL1L, residues 337–554; source: purified
stoichiometry N [2]: 2
